From the supplement of paper PMC12667976

B1: library; numbered along this chain (parent)
chain: MATDAALRRLLRLHRTEIAVAVDSAFPLLHALADHDVVPEDKFQETLHLKEKEGCPQAFHALLSWLLTQDSTAILDFWRVLFKDYNLERYGRLQPILDSFPKDVDLSQPRKGRKPPAVPKALVPPPRLPTKRKASEEARAAAPAALTPRGTASPGSQLKAKPPKKPESSAEQQRLPLGNGIQTMSASVQRAVAMSSGDVPGARGAVEGILIQQVFESGGSKKCIQVGGEFYTPSKFEDSGSGKNKARSSSGPKPLVRAKGAQGAAPGGGEARLGQQGSVPAPLALPSDPQLHQKNEDECAVCRDGGELICCDGCPRAFHLACLSPPLREIPSGTWRCSSCLQATVQEVQPRAEEPRPQEPPVETPLPPGLRSAGEEVRGPPGEPLAGMDTTLVYKHLPAPPSAAPLPGLDSSALHPLLCVGPEGQQNLAPGARCGVCGDGTDVLRCTHCAAAFHWRCHFPAGTSRPGTGLRCRSCSGDVTPAPVEGVLAPSPARLAPGPAKDDTASHEPALHRDDLESLLSEHTFDGILQWAIQSMARPAAPFPS

Variants of: B1
Experiment: AIRE transcriptional activation functional score (insulin promoter-GFP; nonsense median 0, synonymous median 1) (normalised score); higher = higher AIRE activity (more reporter activation)
Settings: with insulin promoter-GFP reporter in HEK293
Outline: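 The functional score compares variant enrichment between select and non-select populations after subtracting wild type. To obtain it, codon-optimized AIRE NNN-codon libraries spanning three regions were placed by Bxb1 recombinase into Flp-In T-REx HEK293 landing-pad cells with an insulin core promoter-GFP reporter. Cells with the top 10% GFP and unselected integrants were tile-sequenced after mCherry+, BFP− integrants had been sorted at day 7 and grown 7 more days. Only variants with 10 counts per million in non-select were kept, rescaled to nonsense median 0 and synonymous median 1, and averaged across biological replicates.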

AIRE transcriptional activation functional score: each site, then its substitutions
C437: H 0.0985, Y 0.215, M -0.171, T 0.164, A 0.0947, K 0.35, Q 0.296, G 0.0855, V 0.168, D 0.609
C434: F 0.223, R 0.0925, E 0.289, W -0.0557, P 0.202, V 0.211, T 0.243, G 0.163, N 0.201, A 0.14, S 0.275, L 0.207, K -0.158, H 0.179, D 0.5, Y 0.0941, I 0.0869, Q 0.225, M 0.34
V443: Q 0.368, C 1.15, L 0.596, R 0.0498, N 0.847, P 1.15, G 1.13, M 1.29, D 0.0282, K 0.0676, T 0.921, E 1.12, F 0.581, Y 0.882, W 0.235, I 0.968, A 0.969, H 1.16, S 0.937
F453: A 0.274, C 0.283, D 0.307
G438: T 0.646, M 1.31, N 0.938, R 1.1, S 1.24, L 0.0897, K 1.12, D 0.196, A 1.21, V 1.1, Q 1.23, C 1.25, W 1.26, E 0.922, P 0.303, I 1.08, F 0.712
H448: D 0.718, R 0.695, Q 1.05, S 0.0363, W 0.403, P 0.0826, F 0.906, A 0.696, N 1.18, V 0.416, L 1.07, I 0.59, T 1.54, Y 1.26
G435: V 0.849, D -0.0125, T 0.0827, R 1.03, Q 0.663, Y 0.365, P 1.14, M 0.379, L 0.516, E 0.463, N 0.945, K 1.2, I 0.437, H 0.284, C 1.18, F 0.364, A 1.16, W 0.957, S 0.74
T441: Q 1.35, S 1.02, M 1.24, V 0.851, C 1.25, P 1.13, F 0.823, H 1.1, L 1.13, W 1.57, Y 1.12, I 1.08, D 0.0827, R 0.696, N 0.751, A 1.03, K 1.31, G 0.478, E 0.676
G440: R 0.76, K 0.598, Q 1.15, E 0.195, A 0.417, P 1.25, S 1.16, L 0.997, F 1.04, D 0.799, V 1.3, W 0.996
A450: S 0.883, R 1.4, V 1.19, F 1.24, I 1.2, Q 1.13, K -0.531, L 1.22, H 1.43, E 1.24, Y 0.311, D 1.48, C 0.795, N 1.35, T 0.632, G 0.382, P 0.565
D439: W 1.2, F -0.443, T 1.03, V 0.869, Y 1.35, E 0.881, S 0.93, I 0.279, H 1.32, Q 0.923, G 0.919, K 0.809, L 0.586, N 1.07, P 0.0529, C 1.16, A 1.1, R 0.536
